Laboratory results as given in patent publication US9255257B2, “PmST1 mutants for chemoenzymatic synthesis of sialyl lewis X compounds” (THE REGENTS OF THE UNIVERSITY OF CALIFORNIA, priority 2011, dated 2016).

Experiments:
[1] = test system: CC(=O)N[C@H]1[C@H]([C@H](O)[C@H](O)CO)O[C@](OP(=O)(O)OC[C@H]2O[C@@H](n3ccc(N)nc3=O)[C@H](O)[C@@H]2O)(C(=O)O)C[C@@H]1O; experiment: purified protein, by the assay type; conditions: other: apparent, donor hydrolysis, H311A, Tris-HCl pH 8.5, 37° C., 20 min
Description: (§4) The reactions were stopped by adding 10 μL of pre-chilled ethanol. The mixtures were incubated on ice for 30 min and centrifuged at 13,000 rpm for 5 min. The supernatants were diluted with borate buffer (25 mM, pH 9.5) and aliquotes of 5 μL each were injected to a Beckman Coulter P/ACE™ MDQ Capillary Electrophoresis system equipped with a capillary (60 cm×75 μm i.d.) and monitored at 254 nm. The apparent kinetic parameters were obtained by fitting the experimental data (the average values of duplicate assay results) into the Michaelis-Menten equation using Grafit 5.0.

[2] = test system: CC(=O)N[C@H]1[C@H]([C@H](O)[C@H](O)CO)O[C@](OP(=O)(O)OC[C@H]2O[C@@H](n3ccc(N)nc3=O)[C@H](O)[C@@H]2O)(C(=O)O)C[C@@H]1O; experiment: α2-3-sialyltransferase activity, LacβMU as acceptor; type: biochemical, Pasteurella multocida; conditions: other: apparent, donor, LacβMU 1 mM, Tris-HCl pH 8.5, 37° C.
Description: (§1) To obtain the apparent kinetic parameters of LacβMU as the acceptor for the α2-3-sialyltransferase activity, the kinetic assays were performed in duplicate in reaction mixtures of 10 μL containing Tris-HCl buffer (100 mM, pH 8.5), a fixed concentration of CMP-Neu5Ac (1 mM), different concentrations of LacβMU (0.2, 0.5, 1.0, 2.0, 5.0, and 9.0 mM) and the mutant proteins (2 μg mL^−1 of E271F, 2 μg mL^−1 of R313Y, and 1.6 μg mL^−1 of E271F/R313Y). All reactions were allowed to proceed at 37° C. for 5 min (E271F), 7 min (R313Y), and 10 min (E271F/R313Y). The apparent kinetic parameters were obtained by fitting the experimental data (the average values of duplicate assay results) into the Michaelis-Menten equation using Grafit 5.0.
(§2) To obtain the apparent kinetic parameters of CMP-Neu5Ac as the donor for the α2-3-sialyltransferase activity, the kinetic assays were performed in duplicate in reaction mixtures of 10 μL containing Tris-HCl buffer (100 mM, pH 8.5), a fixed concentration of LacβMU (1 mM), different concentrations of CMP-Neu5Ac (0.1, 0.2, 0.5, 1.0, 2.0, 5.0, 10.0 and 20.0 mM) and the mutant proteins (2 μg mL^−1 of E271F, 2 μg mL^−1 of R313Y, and 1.6 μg mL^−1 of E271F/R313Y). All reactions were allowed to proceed at 37° C. for 2 min (E271F), 7 min (R313Y), and 5 min (E271F/R313Y). The apparent kinetic parameters were obtained by fitting the experimental data (the average values of duplicate assay results) into the Michaelis-Menten equation using Grafit 5.0.
(§3) All the sialidase and α2-3-sialyltransferase assays were performed in an HPLC system. Reactions were stopped by adding 10 μL of ethanol. After necessary dilutions were performed to adjust the concentrations of the fluorescent-labeled compounds, the samples were then kept on ice until aliquots of 8 μL were injected and analyzed by a Shimadzu LC-6AD system equipped with a membrane on-line degasser, a temperature control unit, and a fluorescence detector (Shimadzu RF-10AXL). A reverse-phase Premier C18 column (250×4.6 mm i.d., 5 μm particle size, Shimadzu) protected with a C18 guard column cartridge was used. The mobile phase was 25% acetonitrile. The fluorescent compounds LacβMU and Neu5Acα2-3LacβMU were detected by excitation at 325 nm and emission at 372 nm.

[3] = test system: Cc1cc(=O)oc2cc(O[C@@H]3O[C@H](CO)[C@@H](O[C@@H]4O[C@H](CO)[C@H](O)[C@H](O)[C@H]4O)[C@H](O)[C@H]3O)ccc12; experiment: as above; type: biochemical, Pasteurella multocida; conditions: other: apparent, acceptor, CMP-Neu5Ac 1 mM, Tris-HCl pH 8.5, 37° C.
Description: as §1, §2, §3

[4] = test system: CC(=O)N[C@H]1[C@H]([C@H](O)[C@H](O)CO)O[C@@](O[C@H]2[C@@H](O)[C@@H](CO)O[C@@H](O[C@H]3[C@H](O)[C@@H](O)[C@H](Oc4ccc5c(C)cc(=O)oc5c4)O[C@@H]3CO)[C@@H]2O)(C(=O)O)C[C@@H]1O; experiment: α2-3-sialidase activity, Neu5Acα2-3LacβMU as substrate; type: biochemical, Pasteurella multocida; conditions: other: apparent, MES pH 5.5, 37° C.
Description: Site-directed mutagenesis. Site-directed mutagenesis was carried out using the QuikChange multi-site-directed mutagenesis kit from Stratagene according to the manufacturer's protocol. The primers used were 5′-[…] -3′ (SEQ ID NO:32) for E271F and 5′-[…]-3′ (SEQ ID NO:33) for R313Y. The sites of mutations are underlined.
Protein Expression and Purification. The plasmids containing the mutant genes were transformed into E. coli BL21 (DE3). The E. coli cells were cultured in LB-rich media (10 g L^−1 tryptone, 5 g L^−1 yeast extract, and 10 g L^−1 NaCl) supplemented with ampicillin (100 μg mL^−1). Overexpression of the mutant proteins was achieved by adding 0.1 mM of isopropyl-1-thio-β-D-galactopyranoside (IPTG) to the E. coli culture when its OD600 nm reached 0.8. […]
as §3, with “Reactions were stopped by adding 10 μL of ethanol.” left out, “A reverse-phase Premier C18 column (250×4.6 mm i.d., 5 μm particle size, Shimadzu) protected with a C18 guard column cartridge was used. The mobile phase was 25% acetonitrile.” left out

[5] = Apparent kinetics of the α2-3-sialidase activity (HPLC, fluorescent sialoside substrate); type: biochemical; conditions: substrate Neu5Acα2-3LacβMU
Description: All the sialidase and α2-3-sialyltransferase assays were performed in an HPLC system. Reactions were stopped by adding 10 μL of ethanol. […] The mobile phase was 25% acetonitrile.
Kinetics of the α2-3-sialidase activity of PmST1 mutants.

[6] = Kinetics of the donor (CMP-Neu5Ac) hydrolysis activity by capillary electrophoresis; type: biochemical
Description: as §4

**Q.** Which Km [1] does the source give for “Pasteurella multocida PmST1 mutant H311A (Pasteurella multocida; H311A)” here?
**A.** 1800 ± 200 µM

**Q.** What does the source list for “Pasteurella multocida PmST1 double mutant E271F/R313Y of SEQ ID NO: 13 (E247F/R289Y of Δ24PmST1, SEQ ID NO: 11) (Pasteurella multocida; E271F/R313Y)”?
**A.** Km ([2]; E271F/R313Y): 340 ± 20 µM; Km ([3]; E271F/R313Y): 540 ± 40 µM

**Q.** What does the source list for “Pasteurella multocida PmST1 mutant E271F of SEQ ID NO: 13 (E247F of Δ24PmST1, SEQ ID NO: 7) (Pasteurella multocida; E271F)”?
**A.** Km ([4]; E271F, 1 min): 5700 ± 900 µM; Km ([2]; E271F): 180 ± 10 µM; Km ([3]; E271F): 710 ± 120 µM

**Q.** For “Pasteurella multocida PmST1 mutant R313Y of SEQ ID NO: 13 (R289Y of Δ24PmST1, SEQ ID NO: 9) (Pasteurella multocida; R313Y)”, which Km ([4]; R313Y, 25 min) is on record?
**A.** 51000 ± 5000 µM

**Q.** And the Km ([2]; R313Y)?
**A.** 620 ± 40 µM

**Q.** What about the Km ([3]; R313Y) of the same molecule?
**A.** 670 ± 50 µM

B1: D141A (protein)
chain: MKNRRLNFKLFFLIIFSLFSTLSWSKTITLYLDPASLPALNQLMDFTQNNEDKTHPRIFGLSRFKIPDNIITQYQNIHFVELKDNRPTEALFTILDQYPGNIELNIHLNIAHSVQLIRPILAYRFKHLDRVSIQQLNLYDAGSMEYVDLEKEENKDISAEIKQAEKQLSHYLLTGKIKFDNPTIARYVWQSAFPVKYHFLSTDYFEKAEFLQPLKEYLAENYQKMDWTAYQQLTPEQQAFYLTLVGFNDEVKQSLEVQQAKFIFTGTTTWEGNTDVREYYAQQQLNLLNHFTQAEGDLFIGDHYKIYFKGHPRGGEINDYILNNAKNITNIPANISFEVLMMTGLLPDKVGGVASSLYFSLPKEKISHIIFTSNKQVKSKEDALNNPYVKVMRRLGIIDESQVIFWDSLKQL
**Q.** With B1 as the molecule, how does the “decrease of α2-3-sialidase activity (catalytic efficiency kcat/Km) compared to wild-type PmST1” value [5] read?
**A.** about 7,300 fold

**Q.** What about the “decrease of efficiency of CMP-Neu5Ac (donor) hydrolysis activity compared to WT” value [6] of the same molecule?
**A.** 1,000 fold

B2: E271F (protein, listed as Pasteurella multocida)
chain: MKNRRLNFKLFFLIIFSLFSTLSWSKTITLYLDPASLPALNQLMDFTQNNEDKTHPRIFGLSRFKIPDNIITQYQNIHFVELKDNRPTEALFTILDQYPGNIELNIHLNIAHSVQLIRPILAYRFKHLDRVSIQQLNLYDDGSMEYVDLEKEENKDISAEIKQAEKQLSHYLLTGKIKFDNPTIARYVWQSAFPVKYHFLSTDYFEKAEFLQPLKEYLAENYQKMDWTAYQQLTPEQQAFYLTLVGFNDEVKQSLEVQQAKFIFTGTTTWFGNTDVREYYAQQQLNLLNHFTQAEGDLFIGDHYKIYFKGHPRGGEINDYILNNAKNITNIPANISFEVLMMTGLLPDKVGGVASSLYFSLPKEKISHIIFTSNKQVKSKEDALNNPYVKVMRRLGIIDESQVIFWDSLKQL
modifications: PmST1 wild-type glycosyltransferase family 80 (GT80), GT80 sialyltransferase, Pm0188Ph
**Q.** Which results are given for B2?
**A.** decrease in sialidase Km value compared to wild-type PmST1 [5]: 4.2 fold; decrease in sialidase kcat (turnover number) compared to wild-type PmST1 [5]: 250 fold; decrease of α2-3-sialidase activity (catalytic efficiency kcat/Km) compared to wild-type PmST1 [5]: about 59 fold

B3: R313Y (protein, listed as Pasteurella multocida)
chain: MKNRRLNFKLFFLIIFSLFSTLSWSKTITLYLDPASLPALNQLMDFTQNNEDKTHPRIFGLSRFKIPDNIITQYQNIHFVELKDNRPTEALFTILDQYPGNIELNIHLNIAHSVQLIRPILAYRFKHLDRVSIQQLNLYDDGSMEYVDLEKEENKDISAEIKQAEKQLSHYLLTGKIKFDNPTIARYVWQSAFPVKYHFLSTDYFEKAEFLQPLKEYLAENYQKMDWTAYQQLTPEQQAFYLTLVGFNDEVKQSLEVQQAKFIFTGTTTWEGNTDVREYYAQQQLNLLNHFTQAEGDLFIGDHYKIYFKGHPYGGEINDYILNNAKNITNIPANISFEVLMMTGLLPDKVGGVASSLYFSLPKEKISHIIFTSNKQVKSKEDALNNPYVKVMRRLGIIDESQVIFWDSLKQL
modifications: PmST1 wild-type glycosyltransferase family 80 (GT80), GT80 sialyltransferase, Pm0188Ph
**Q.** For B3, which “decrease in sialidase kcat (turnover number) compared to wild-type PmST1” value [5] is on record?
**A.** 1,278 fold

**Q.** What about the “decrease of α2-3-sialidase activity (catalytic efficiency kcat/Km) compared to wild-type PmST1” value [5] of the same molecule?
**A.** 2,639 fold

**Q.** What about the “increase in sialidase Km value compared to wild-type PmST1” value [5] of the same molecule?
**A.** 2 fold

B4: H311A (protein)
chain: MKNRRLNFKLFFLIIFSLFSTLSWSKTITLYLDPASLPALNQLMDFTQNNEDKTHPRIFGLSRFKIPDNIITQYQNIHFVELKDNRPTEALFTILDQYPGNIELNIHLNIAHSVQLIRPILAYRFKHLDRVSIQQLNLYDDGSMEYVDLEKEENKDISAEIKQAEKQLSHYLLTGKIKFDNPTIARYVWQSAFPVKYHFLSTDYFEKAEFLQPLKEYLAENYQKMDWTAYQQLTPEQQAFYLTLVGFNDEVKQSLEVQQAKFIFTGTTTWEGNTDVREYYAQQQLNLLNHFTQAEGDLFIGDHYKIYFKGAPRGGEINDYILNNAKNITNIPANISFEVLMMTGLLPDKVGGVASSLYFSLPKEKISHIIFTSNKQVKSKEDALNNPYVKVMRRLGIIDESQVIFWDSLKQL
**Q.** With B4 as the molecule, how does the “decrease of efficiency of CMP-Neu5Ac (donor) hydrolysis activity compared to WT” value [6] read?
**A.** 16 fold
